# Reference: the supplement of paper PMC7877785
# ± gives the uncertainty stated by the source.
# Test: self-splicing fitness, log relative to wild type (ln ratio); higher = more splicing; Tetrahymena group I intron in knt gene, E. coli kanamycin selection, DiMSum; sequences stand for … in CUCUCU…GGAGGGAAAAGUUAUCAGGCAUGCACCUGGUAGCUAGUCUUUAAACCAAUAGAUUGCAUCGGUUUAAAAGGCAAGACCGUCAAAUUGCGGGAAAGGGGUCAACAGCCGUUCAGUACCAAGUCUCAGGGGAAACUUUGAGAUGGCCUUGCAAAGGGUAUGGUAAUAAGCUGACGGACAUGGUCCUAACCACGCAGCCAAGUCCUAAGUCAACAGAUCUUCUGUUGAUAUGGAUGCAGUUCACAGACUAAAUGUCGGUCGGGGAAGAUGUAUUCUUCUCAUAAGAUAUAGUCGGACCUCUCCUUAAUGGGAGCUAGCGGAUGAAGUGAUGCAACACUGGAGCCGCUGGGAACUAAUUUGUAUGCGAAAGUAUAUUGAUUAGUUUUGGAGUACUCGUGGUCG
# Outline: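 Library with all eight P1ex-region intron nucleotides randomised, intron inside the knt kanamycin-resistance gene on pET-22b(+), in E. coli BL21(DE3). Cells grew overnight at 37°C or 30°C on LB agar with or without 25 μg/mL kanamycin (plus 100 μg/mL carbenicillin, 50 μM IPTG, 0.2% rhamnose), in six replicate transformations. Pooled colonies were amplicon-sequenced on Illumina HiSeq 2500. DiMSum fitness is the error-weighted combination of wild-type-normalised replicate fold changes, kanamycin versus none.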
Sequence,self-splicing fitness (ln) (30 °C),self-splicing fitness (ln) (37 °C)
GGCCAGCAAUAUUACGAUGA,-3.07 ± 0.28,-2.03 ± 0.22
GGCCAGCAAUAUUACGAUGC,-0.639 ± 0.093,0.00176 ± 0.11
GGCCAGCAAUAUUACGCCCA,-2.11 ± 0.35,-0.809 ± 0.25
GGCCAGCAAUAUUACGCCUG,-2.83 ± 0.27,-1.68 ± 0.23
GGCCAGCAAUAUUACGCGUG,-1.22 ± 0.079,-0.385 ± 0.092
GGCCAGCAAUAUUACGCUUA,-0.822 ± 0.15,0.139 ± 0.17
GGCCAGCAAUAUUACGGACU,-2.24 ± 0.1,-1.2 ± 0.1
GGCCAGCAAUAUUACGGCAA,-0.216 ± 0.082,-0.645 ± 0.087
GGCCAGCAAUAUUACGGCAC,-1.58 ± 0.15,-1.41 ± 0.19
GGCCAGCAAUAUUACGGCAU,-1.13 ± 0.056,-0.688 ± 0.066
GGCCAGCAAUAUUACGGCCC,-2.83 ± 0.42,–
GGCCAGCAAUAUUACGGCCU,-3.58 ± 0.23,-2.42 ± 0.27
GGCCAGCAAUAUUACGGCGC,-1.79 ± 0.21,-1.57 ± 0.34
GGCCAGCAAUAUUACGGUGA,-0.376 ± 0.057,0.327 ± 0.076
GGCCAGCAAUAUUACGGUGC,-2.91 ± 0.12,-2.01 ± 0.11
GGCCAGCAAUAUUACGGUUA,0.0773 ± 0.069,-0.541 ± 0.067
GGCCAGCAAUAUUACGUAAC,-1.22 ± 0.082,-1.19 ± 0.073
GGCCAGCAAUAUUACGUAGC,-2.24 ± 0.16,0.278 ± 0.16
GGCCAGCAAUAUUACGUAUG,-4.17 ± 0.31,-2.85 ± 0.26
GGCCAGCAAUAUUACGUCAG,-1.91 ± 0.13,-2.98 ± 0.33
GGCCAGCAAUAUUACGUCGU,-1.18 ± 0.061,-0.452 ± 0.072

Sequence,self-splicing fitness (ln) (30 °C),self-splicing fitness (ln) (37 °C)
GGCCAGCAAUAUUACGUGUC,-3.2 ± 0.17,-1.41 ± 0.12
GGCGAGCAAUAUUACGAAAU,-2.66 ± 0.25,-0.868 ± 0.19
GGCGAGCAAUAUUACGAACC,-2.56 ± 0.071,-1.11 ± 0.085
GGCGAGCAAUAUUACGAAGA,–,-1.49 ± 0.47
GGCGAGCAAUAUUACGACAG,-3.57 ± 0.32,–
GGCGAGCAAUAUUACGACCA,-2.38 ± 0.39,-1.05 ± 0.42
GGCGAGCAAUAUUACGAGUC,-1.61 ± 0.36,–
GGCGAGCAAUAUUACGAUCA,-1.18 ± 0.17,-0.735 ± 0.18
GGCGAGCAAUAUUACGAUUG,-2.49 ± 0.13,-2.05 ± 0.2
GGCGAGCAAUAUUACGCACG,-2.49 ± 0.28,-2.71 ± 0.36
GGCGAGCAAUAUUACGGACA,-0.299 ± 0.23,-0.824 ± 0.28
GGCGAGCAAUAUUACGGACC,–,-0.87 ± 0.4
GGCGAGCAAUAUUACGGACG,-0.223 ± 0.1,-0.489 ± 0.21
GGCGAGCAAUAUUACGGAGC,–,-2.17 ± 0.37
GGCGAGCAAUAUUACGGCCC,0.209 ± 0.31,–
GGCGAGCAAUAUUACGGGGU,-3.47 ± 0.25,–
GGCGAGCAAUAUUACGGGUA,-3.42 ± 0.26,-2.79 ± 0.2
GGCGAGCAAUAUUACGGUAU,-2.08 ± 0.13,-1.04 ± 0.17
GGCGAGCAAUAUUACGGUUA,-1.07 ± 0.11,0.0284 ± 0.088
GGCGAGCAAUAUUACGUAUC,-1.61 ± 0.14,-0.00113 ± 0.13
